Target: nesprin-2-Giant, Q6ZWQ0-1
Assay: Duolink PLA (proximity ligation assay) in cells
Details: chain shown with the change; Bax/Bak DKO MEFs, transient transfection, in the presence of Q-VD-OPH; anti-Bax (6A7) Ab and anti-nesprin-2G Ab; n = 3; parent: est. 5.1; read off a plot; scale: fold of normalized Duolink dots per transfected cell relative to GFP

B1: GFP-Bax, Q07812 63-65A (protein)
chain: MDGSGEQPRGGGPTSSEQIMKTGALLLQGFIQDRAGRMGGEAPELALDPVPQDASTKKLSECAAAIGDELDSNMELQRMIAAVDTDSPREVFFRVAADMFSDGNFNWGRVVALFYFASKLVLKALCTKVPELIRTIMGWTLDFLRERLLGWIQDQGGWDGLLSYFGTPTWQTVTIFVAGVLTASLTIWKKMG
Work on B1 yielded a response of 8.8.

From article PMC7501853
